Tests used:
[1] = molecular target: FUS-mEmerald (UniProt P35637)
[2] = molecular target: FUS-mEmerald (UniProt P35637); experiment: tie line gradient analysis (FUS dilute phase concentration by confocal detection in a microfluidic flow cell); mEmerald-tagged FUS; DNAJB6 varied 0-4 µM; FUS dilute phase concentration read after phase separation

Chain of UniProt P35637 (P35637 whole entry): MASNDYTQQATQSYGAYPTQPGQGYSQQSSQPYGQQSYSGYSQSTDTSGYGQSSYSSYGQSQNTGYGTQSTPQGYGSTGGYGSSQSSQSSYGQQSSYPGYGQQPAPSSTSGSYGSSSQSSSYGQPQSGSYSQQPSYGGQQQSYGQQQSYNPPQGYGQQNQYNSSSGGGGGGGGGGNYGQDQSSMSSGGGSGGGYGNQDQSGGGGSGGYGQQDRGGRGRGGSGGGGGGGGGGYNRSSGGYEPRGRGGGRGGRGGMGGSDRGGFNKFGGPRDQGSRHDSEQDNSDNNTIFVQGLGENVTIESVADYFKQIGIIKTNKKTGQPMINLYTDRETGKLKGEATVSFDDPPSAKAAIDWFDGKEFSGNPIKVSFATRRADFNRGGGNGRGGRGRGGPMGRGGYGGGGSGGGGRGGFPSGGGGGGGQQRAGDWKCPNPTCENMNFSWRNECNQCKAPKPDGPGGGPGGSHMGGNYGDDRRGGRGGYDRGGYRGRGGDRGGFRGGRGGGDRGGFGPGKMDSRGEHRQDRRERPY

Substance: purified recombinant human DNAJB6 (from UniProt O75190 1-326) (natural protein)
- Young's modulus of FUS + DNAJB6 condensates by AFM, 2 h (~31 kPa) to 48 h; FUS-only condensates rise from ~9 kPa to ~25,000 kPa [1]: 40 kPa
- tie line gradient (µM DNAJB6 / µM FUS) [2]: 3

— PMC12638947
